Results on 2 substances are retold here after patent publication US20250263467A1.

The target in this assay is SARS-CoV-2 Spike protein on pseudotyped virus (SARS-CoV-2 (Wuhan-Hu-1)) (UniProt P0DTC2). Nature of the assay: cell-based or functional assay.

In turn, S309 rIgG1-LS (antibody) gave a maximum neutralization, VSV pseudotype, 293T ACE2 cells of 34%; a maximum neutralization, VSV pseudotype, A549-ACE2-TMPRSS2 clone 10 cells of 42%; a maximum neutralization, VSV pseudotype, Huh7 cells of 78%; a maximum neutralization, VSV pseudotype, MRC5-ACE2-TMPRSS2 cells of 45%. Moreover, the maximum neutralization, VSV pseudotype, Vero E6-TMPRSS2 cells was 96% and the maximum neutralization, VSV pseudotype, Vero E6 cells was greater than 99%.

sotrovimab (antibody) displayed an EC50, neutralization of pseudotyped virus of 0.0241 µg/mL.
